Test results: the PETadex activity labels

B1: unnamed (protein)
chain: MNFPRASRLMQAAVLGGLMAVSAAATAQTNPYARGPNPTAASLEASAGPFTVRSFTVSRPSGYGAGTVYYPTNAGGTVGAIAIVPGYTARQSSIKWWGPRLASHGFVVITIDTNSTLDQPSSRSSQQMAALRQVASLNGTSSSPIYGKVDTARMGVMGHSMGGGGSLISAANNPSLKAAAPQAPWDSSTNFSSVTVPTLIFACENDSIAPVNSSALPIYDSMSRNAKQFLEINGGSHFCANSGNSNQALIGKKGVAWMKRFMDNDTRYSTFACENPNSTRVSDFRTANCS
B2: unnamed (protein)
chain: MSMTASAYALAQSSPYAKGPDPTTSSLEAATGSFSTRTTTVSRLSASGFGGGTIYYPTASGSYGAIAISPGFTAYQSSISWLGTRLASRGFVVITIDTITTSDQPDSRGRQLKAALDKVVSLSRTAGNVLYGKVDANRLAVAGHSMGGGGTLAAARDNPSLKAAVPLAPWHTTKFFSTIRVPTLIIGGESDTIAPVASHSIPFYTSSLSSIAKGYMELNNASHFFPQTSTYYPLVGKYMISWFKRFVDEDTRYSPFLCGAPHQSDVANFLRVSDYRENCPY

Assays:
BHET [1] = settings: 50 °C; part of the chain shown
BHET [2] = experiment: Proxy for plastic degradation [Released monomer concentration (HPLC/LC-MS) (BHET)]; settings: pH 7

| Protein | Km (BHET [1]) | kcat (BHET [1]) | kcat/Km (BHET [1]) | Proxy for plastic degradation (BHET [2]) |
| --- | --- | --- | --- | --- |
| B1 | 1610 µM | 540 s⁻¹ | 335000 M⁻¹ s⁻¹ |  |
| B2 |  |  |  | 1% |
